Reference: EP4682166A1 (Guangzhou Enmai Biotechnology Co., Ltd, dated 2026)

T1: human NMI (N-myc Interacting protein), recombinant protein (human, UniProt Q13287 1-307, limits assumed)
T1 construct: Gene ID: 9111; also called hNMI; antigen
T1 sequence (looked up): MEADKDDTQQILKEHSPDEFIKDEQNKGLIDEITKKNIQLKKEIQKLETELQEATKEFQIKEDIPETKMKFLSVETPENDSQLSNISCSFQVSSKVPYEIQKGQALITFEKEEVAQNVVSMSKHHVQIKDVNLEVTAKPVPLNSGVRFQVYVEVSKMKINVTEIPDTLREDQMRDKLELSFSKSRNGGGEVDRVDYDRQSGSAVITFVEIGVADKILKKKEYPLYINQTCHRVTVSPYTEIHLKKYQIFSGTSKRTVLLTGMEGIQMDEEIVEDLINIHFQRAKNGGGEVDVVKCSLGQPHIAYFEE

T2: human NMI (N-myc Interacting protein) (human, UniProt Q13287 1-307, limits assumed)
T2 construct: Immunogen and ELISA coating antigen; also called hNMI; antigen 1
T2 sequence (looked up): T1 sequence (looked up)

B1: monoclonal antibody 94C4 (antibody, V domains shown)
VH: QSLEESGGGLVQPEGSLTLTCKASGFDFSSNAMCWVRQAPGKGLEWIACISSASSGSSGSTYYASWAKGRFTISKTSSTTVTLQMTSLTAADMATYFCARDGYDLWGPGTLVTVSS
VL: QVLTQTPSSVSAAVGGTVTISCQSSPSVYNNYLSWFQQKPGQSPKLLIYRVSTLASGVPSRFSGSGSGTQFTLTISGVQCDDAATYYCAGGYDSASDTYVFGGGTEVVVK
notes: Rabbit monoclonal antibody; Used biotin-labelled as detection antibody (94C4-1-biotin); also called 94C4-1
B2: B-8 (antibody, V domains shown)
VH: QSLEESGGDLVKPGASLTLTCTASGFSFSSSYYMCWVRQAPGKGLEWIACIYAGSSGSTYYASWAKGRFTISKTSSTTVTLQMTSLTAADTATYFCAREYSYDDYGDFWGFNLWGPGTLVTVSS
VL: ALVMTQTPSSVSAAVGGTVTINCQASQNIYTNLAWYQQKPGQPPKLLIYGASNLESGVPSRFKGSGSGTEYTLTISDLECDDAATYYCQSSLYSRIADRANAFGGGTEVVVK
notes: Rabbit monoclonal antibody; also called B8-1; B-8-biotin (biotin-labelled form)
B3: 240B10-1 (antibody, V domains shown)
VH: QSLEESGGRLVTPGGSLTLTCTVSGIDLSSYTMGWVRQAPGKGLEYIGIISGGGRTYYASWAKGRFTISKTSSTTVDLKVTSLTTEDTATYFCARIYTLWGQGTLVTVSS
VL: QVLTQTLASVSAAVGGTVTINCQSSQSVYNNDYLAWFQQKSGQPPKQLIHSASKLASGVPSRFKGSGSGTQFTLTINDVQCDDAATYYCLGGYDCYSADCNVFGGGTEVVVK
notes: Rabbit monoclonal antibody; also called 240B10-1-biotin (biotin-labelled form)
B4: 39B4 (antibody, V domains shown)
VH: QEQLVESGGGLVQPEGSLTLTCTASGFSFSSSYWICWVRQAPGKGLEWIACIYAGTSGSTYYASWAKGRFTISKTSSTTVDLQMNSLTAADTATYFCARAGYYTYGAGVYIYPSSFKLWGPGTLVTVSS
VL: DVVMTQTPASVEAAVGGTVTIKCQASESIGNALAWYQQKPGQPPKLLIYSASNLASGVPSRFSGSGSGTQFTLTISDLECADAATYYCQSYYYSSSSITFGGGTEVVVK
notes: Rabbit monoclonal antibody; also called 39B4-1; 39B4-1-biotin (biotin-labelled form)

Assays:
[1] = target: T1, human NMI (N-myc Interacting protein), …; test: sandwich ELISA; detection 98G10-1-biotin; hNMI 3.704 ng/mL
[2] = target: T1, human NMI (N-myc Interacting protein), …; test: indirect ELISA, coated hNMI
[3] = target: T1, human NMI (N-myc Interacting protein), …; test: sandwich ELISA; detection 98G10-1-biotin; hNMI 1.235 ng/mL
[4] = target: T1, human NMI (N-myc Interacting protein), …; test: sandwich ELISA; detection 98G10-1-biotin; hNMI 33.333 ng/mL
[5] = target: T1, human NMI (N-myc Interacting protein), …; test: sandwich ELISA; detection 39B4-1-biotin; hNMI 11.111 ng/mL
[6] = target: T1, human NMI (N-myc Interacting protein), …; test: sandwich ELISA; detection 39B4-1-biotin; hNMI 100.000 ng/mL
[7] = target: T1, human NMI (N-myc Interacting protein), …; test: sandwich ELISA; detection 39B4-1-biotin; hNMI 1.235 ng/mL
[8] = target: T1, human NMI (N-myc Interacting protein), …; test: sandwich ELISA; detection 98G10-1-biotin; hNMI 11.111 ng/mL
[9] = target: T1, human NMI (N-myc Interacting protein), …; test: sandwich ELISA; detection 39B4-1-biotin; hNMI 3.704 ng/mL
[10] = target: T1, human NMI (N-myc Interacting protein), …; test: sandwich ELISA; detection 39B4-1-biotin; hNMI 33.333 ng/mL
[11] = target: T1, human NMI (N-myc Interacting protein), …; test: sandwich ELISA; detection 98G10-1-biotin; hNMI 100.000 ng/mL
[12] = target: T2, human NMI (N-myc Interacting protein); test: I-ELISA, hNMI coated 1 ug/mL; antibody 156.25 ng/mL
[13] = target: T2, human NMI (N-myc Interacting protein); test: I-ELISA, hNMI coated 1 ug/mL; antibody 625 ng/mL
[14] = target: T2, human NMI (N-myc Interacting protein); test: sandwich ELISA; coating antibody 2.5 ug/mL, detection 94C4-biotin 0.5 ug/mL
[15] = target: T2, human NMI (N-myc Interacting protein); test: I-ELISA, hNMI coated 1 ug/mL; antibody 78.125 ng/mL
[16] = target: T2, human NMI (N-myc Interacting protein); test: I-ELISA, hNMI coated 1 ug/mL; antibody 2500 ng/mL
[17] = target: T2, human NMI (N-myc Interacting protein); test: indirect ELISA, human NMI coated; supernatant dilution series
[18] = target: T2, human NMI (N-myc Interacting protein); test: I-ELISA, hNMI coated 1 ug/mL; antibody 19.53125 ng/mL
[19] = target: T2, human NMI (N-myc Interacting protein); test: I-ELISA, hNMI coated 1 ug/mL; antibody 2.4414063 ng/mL
[20] = target: T2, human NMI (N-myc Interacting protein); test: indirect ELISA, human NMI coated (repeats Table 3)
[21] = target: T2, human NMI (N-myc Interacting protein); test: I-ELISA, hNMI coated 1 ug/mL; antibody 312.5 ng/mL
[22] = target: T2, human NMI (N-myc Interacting protein); test: I-ELISA, hNMI coated 1 ug/mL; antibody 1.2207031 ng/mL
[23] = target: T2, human NMI (N-myc Interacting protein); test: I-ELISA, hNMI coated 1 ug/mL; antibody 1250 ng/mL
[24] = target: T2, human NMI (N-myc Interacting protein); test: I-ELISA, hNMI coated 1 ug/mL; antibody 9.765625 ng/mL
[25] = target: T2, human NMI (N-myc Interacting protein); test: I-ELISA, hNMI coated 1 ug/mL; antibody 39.0625 ng/mL
[26] = target: T2, human NMI (N-myc Interacting protein); test: I-ELISA, hNMI coated 1 ug/mL; antibody 4.8828125 ng/mL
[27] = target: T2, human NMI (N-myc Interacting protein); test: indirect ELISA, human NMI coated; supernatant 1/9
[28] = target: T2, human NMI (N-myc Interacting protein); test: indirect ELISA, human NMI coated; supernatant 1/81
[29] = target: T2, human NMI (N-myc Interacting protein); test: indirect ELISA, human NMI coated; supernatant 1/27
[30] = target: T2, human NMI (N-myc Interacting protein); test: indirect ELISA, human NMI coated; supernatant undiluted
[31] = target: T2, human NMI (N-myc Interacting protein); test: indirect ELISA, human NMI coated; supernatant dilution series; remark: listed apart in the source
[32] = target: T2, human NMI (N-myc Interacting protein); test: indirect ELISA, human NMI coated; supernatant 1/243
[33] = target: T2, human NMI (N-myc Interacting protein); test: indirect ELISA, human NMI coated; supernatant 1/2187
[34] = target: T2, human NMI (N-myc Interacting protein); test: indirect ELISA, human NMI coated; supernatant 1/6561
[35] = target: T2, human NMI (N-myc Interacting protein); test: indirect ELISA, human NMI coated; supernatant 1/3
[36] = target: T2, human NMI (N-myc Interacting protein); test: indirect ELISA, human NMI coated; supernatant 1/19683
[37] = target: T2, human NMI (N-myc Interacting protein); test: indirect ELISA, human NMI coated; supernatant 1/729
[38] = target: T2, human NMI (N-myc Interacting protein); test: indirect ELISA, human NMI coated; supernatant 1/59049
[39] = target: T2, human NMI (N-myc Interacting protein); test: indirect ELISA, human NMI coated (repeats Table 1)

| Binder | OD450 [12] [OD450] | OD450 [13] [OD450] | detection limit (sensitivity) [14] [pg/mL] | OD450 [15] [OD450] | OD450 [16] [OD450] | EC50 [17] [ng/mL] | OD450 [18] [OD450] | OD450 [19] [OD450] | EC50 [20] [ng/mL] | OD450 [21] [OD450] | OD450 [22] [OD450] | OD450 [23] [OD450] | OD450 [24] [OD450] | OD450 [25] [OD450] | OD450 [26] [OD450] | other results |
| --- | --- | --- | --- | --- | --- | --- | --- | --- | --- | --- | --- | --- | --- | --- | --- | --- |
| B1 | – | – | – | – | – | – | – | – | – | – | – | – | – | – | – | OD450 [1]: 0.627 OD450; EC50 [2]: 32.7 ng/mL; OD450 [3]: 0.292 OD450; OD450 [4]: 2.51 OD450; OD450 [5]: 1.67 OD450; OD450 [6]: 3.22 OD450; OD450 [7]: 0.372 OD450; OD450 [8]: 1.36 OD450; OD450 [9]: 0.735 OD450; OD450 [10]: 2.75 OD450; OD450 [11]: 3.1 OD450 |
| B2 | 1.36 | 1.62 | 60 | 1.26 | 1.85 | 2.51 | 0.502 | 0.099 | 2.51 | 1.67 | 0.084 | 1.68 | 0.243 | 0.838 | 0.143 | – |
| B3 | 1.85 | 2.2 | 60 | 1.46 | 2.15 | 2.6 | 0.573 | 0.105 | 2.6 | 2.19 | 0.077 | 2.13 | 0.333 | 0.996 | 0.163 | – |
| B4 | 1.8 | 1.99 | 40 | 1.43 | 2.25 | – | 0.529 | 0.099 | – | 1.99 | 0.077 | 2.13 | 0.296 | 0.828 | 0.159 | ELISA OD [27]: 3.41 OD; ELISA OD [28]: 3.28 OD; ELISA OD [29]: 3.35 OD; ELISA OD [30]: 3.4 OD; EC50 [31]: 0.567 ng/mL; ELISA OD [32]: 3.1 OD; ELISA OD [33]: 2.32 OD; ELISA OD [34]: 1.61 OD; ELISA OD [35]: 3.43 OD; ELISA OD [36]: 0.758 OD; ELISA OD [37]: 2.76 OD; ELISA OD [38]: 0.415 OD; EC50 [39]: 0.567 ng/mL |
